From paper doi:10.1101/2022.03.31.486524 come the findings set out here.

Assay [1] concerns the target CelTOS N-terminal truncation mutant (Gly51-Asp196) (Plasmodium vivax). Briefly: SEC. Background: Size exclusion chromatography separates by hydrodynamic size, large species first.
For assay [2], the target named is CelTOS double mutant Lys122Asp, Leu164Asp (Plasmodium vivax). The assay is described as follows: SEC.
In assay [3] the target is Disulfide-locked CelTOS dimer (Ser55Cys, Ala123Cys) (Plasmodium vivax). The assay is described as follows: cross-linking.

In general, stoichiometry N refers to the number of molecules, sites or subunits per partner or assembly. The substance “CelTOS N-terminal truncation mutant (Gly51-Asp196) (domain or fragment)” gave a stoichiometry N in assay [1] of 2.

“CelTOS double mutant Lys122Asp, Leu164Asp (natural protein)”: in assay [2], the stoichiometry N was determined as 2.

As for “Disulfide-locked CelTOS dimer (Ser55Cys, Ala123Cys) (natural protein)”, in assay [3], the precursor abundance of cross-linked species was 70% and the stoichiometry N came to 2.
